Reference: article PMC10202830, “Cingulin and paracingulin tether myosins-2 to junctions to mechanoregulate the plasma membrane” (The Journal of Cell Biology, 2023)
Where two headings read alike, the source gives them in different places.

What was measured:
[1] = target: T1, His-tagged mZU5 (1520–1745) (mouse, UniProt P39447 1520-1745); test: MST; labelled target His-tagged mZU5 (1520–1745; red tris-NTA dye, 50 nM); GST-mCGN (1–112) or GST-mCGNL1 (1–122) 0–1,000 nM in PBS-T; Monolith NT.115 fit; n = 5
T1 construct: mouse ZO-1, residues 1520-1745 (ZU5-containing region); Labelled with the red tris-NTA dye through its His tag in the MST; also called ZU5-containing region of mZO-1 (residues 1520–1745); ZU5-containing fragment
T1 sequence (looked up): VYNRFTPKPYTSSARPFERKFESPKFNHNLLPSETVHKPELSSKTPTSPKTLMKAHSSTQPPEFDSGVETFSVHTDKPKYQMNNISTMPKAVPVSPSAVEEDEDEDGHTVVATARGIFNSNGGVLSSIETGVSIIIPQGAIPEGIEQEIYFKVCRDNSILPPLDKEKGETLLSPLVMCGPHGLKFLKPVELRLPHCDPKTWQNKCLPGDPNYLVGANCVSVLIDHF

[2] = target: His-tagged hCGN Rod2 (667–1203), purified (human) (UniProt Q9P2M7); test: MST; labelled target His-tagged hCGN Rod2 (red tris-NTA dye, 200 nM); ligands hNM2A rod or hNM2B rod 0–10,000 nM; PBS with 0.05% Tween 20; Monolith NT.115 fit; n = 7
Chain of His-tagged hCGN Rod2 (667–1203), purified (human) (Q9P2M7 667-1203): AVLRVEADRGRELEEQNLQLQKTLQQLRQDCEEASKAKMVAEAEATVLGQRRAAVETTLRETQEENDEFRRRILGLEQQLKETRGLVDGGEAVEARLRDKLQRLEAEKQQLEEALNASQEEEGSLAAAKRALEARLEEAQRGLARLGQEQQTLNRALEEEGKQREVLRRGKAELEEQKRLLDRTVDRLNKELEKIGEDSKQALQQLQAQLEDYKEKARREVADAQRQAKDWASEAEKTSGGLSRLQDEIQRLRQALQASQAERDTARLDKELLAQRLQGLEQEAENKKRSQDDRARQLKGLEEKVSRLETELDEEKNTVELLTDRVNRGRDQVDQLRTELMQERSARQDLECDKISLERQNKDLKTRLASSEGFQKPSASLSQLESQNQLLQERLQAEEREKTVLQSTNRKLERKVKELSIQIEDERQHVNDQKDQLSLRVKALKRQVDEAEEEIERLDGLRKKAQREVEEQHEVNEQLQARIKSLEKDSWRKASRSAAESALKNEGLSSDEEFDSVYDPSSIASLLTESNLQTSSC

[3] = target: T2, full-length hCGNL1 (10xHis-2xStrep), purified (human, UniProt Q0VF96 1-1302); test: pull-down; affinity purified GST-tagged cNM2A, cNM2B, cNM2C rod fragments as baits; His-tagged full-length CGN and CGNL1 purified from baculovirus-infected insect cells as preys; IB with anti-His (Fig. 1 H–J); conditions: both partners purified
T2 construct: human paracingulin (CGNL1), 1–1,302aa, in pACEBac1; the plasmid list prints this construct as 'hCGN-FL-10xHis-2xStrep (1–1,302aa; S2518)'; also called His-tagged full-length CGNL1; purified CGNL1; source: baculovirus-infected insect cells, purified (StrepTag resin)
T2 sequence (looked up): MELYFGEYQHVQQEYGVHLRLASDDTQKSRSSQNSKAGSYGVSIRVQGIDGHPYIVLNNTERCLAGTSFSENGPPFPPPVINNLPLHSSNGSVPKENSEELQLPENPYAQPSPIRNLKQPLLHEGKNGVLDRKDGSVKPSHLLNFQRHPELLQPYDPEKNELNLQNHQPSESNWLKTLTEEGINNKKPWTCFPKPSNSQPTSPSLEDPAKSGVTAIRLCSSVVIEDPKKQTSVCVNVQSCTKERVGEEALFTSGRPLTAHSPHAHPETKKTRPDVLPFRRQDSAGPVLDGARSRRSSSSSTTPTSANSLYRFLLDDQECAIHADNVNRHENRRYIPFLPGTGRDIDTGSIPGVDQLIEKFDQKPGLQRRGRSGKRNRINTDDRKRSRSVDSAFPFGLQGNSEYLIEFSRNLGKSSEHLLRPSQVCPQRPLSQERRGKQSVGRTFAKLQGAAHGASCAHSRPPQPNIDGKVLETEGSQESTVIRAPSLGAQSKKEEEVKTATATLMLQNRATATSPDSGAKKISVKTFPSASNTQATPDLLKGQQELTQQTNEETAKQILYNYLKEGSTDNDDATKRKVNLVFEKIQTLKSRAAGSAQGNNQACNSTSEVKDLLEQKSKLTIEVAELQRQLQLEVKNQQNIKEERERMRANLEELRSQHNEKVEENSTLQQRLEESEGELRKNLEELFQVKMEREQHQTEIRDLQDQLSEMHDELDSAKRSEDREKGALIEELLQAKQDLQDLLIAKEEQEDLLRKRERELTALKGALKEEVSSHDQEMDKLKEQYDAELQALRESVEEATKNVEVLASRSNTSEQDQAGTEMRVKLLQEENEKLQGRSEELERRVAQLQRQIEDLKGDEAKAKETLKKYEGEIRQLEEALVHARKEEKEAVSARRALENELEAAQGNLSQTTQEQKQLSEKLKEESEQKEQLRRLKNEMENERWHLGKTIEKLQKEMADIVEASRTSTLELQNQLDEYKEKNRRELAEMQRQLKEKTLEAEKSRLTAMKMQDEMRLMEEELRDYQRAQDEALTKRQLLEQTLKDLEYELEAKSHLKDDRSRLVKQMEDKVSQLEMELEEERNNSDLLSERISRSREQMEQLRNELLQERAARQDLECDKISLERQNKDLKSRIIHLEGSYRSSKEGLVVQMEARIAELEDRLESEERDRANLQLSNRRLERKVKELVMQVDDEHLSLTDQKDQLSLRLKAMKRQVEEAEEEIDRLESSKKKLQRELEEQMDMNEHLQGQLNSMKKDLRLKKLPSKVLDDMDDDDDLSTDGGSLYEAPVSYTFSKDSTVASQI

CGNL1 = target: T3, CGNL1 (Mus musculus (Mouse), UniProt Q6AW69); test: MST, GST-fusion ligands (GST dimer)
T3 chain: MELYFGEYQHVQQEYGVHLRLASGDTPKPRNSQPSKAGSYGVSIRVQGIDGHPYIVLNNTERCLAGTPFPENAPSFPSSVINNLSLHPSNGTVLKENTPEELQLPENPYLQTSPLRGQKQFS

CGN = target: T4, CGN (Mus musculus (Mouse), UniProt P59242); test: MST, GST-fusion ligands (GST dimer)
T4 chain: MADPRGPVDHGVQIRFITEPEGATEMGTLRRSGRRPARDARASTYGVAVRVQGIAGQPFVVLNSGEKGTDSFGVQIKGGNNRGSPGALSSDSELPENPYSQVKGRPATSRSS

GST-mCGN (1–112) (from UniProt P59242 1-112) (domain or fragment)
Kd [1]: 7.7 nM

hNM2A rod (1330–1960), purified (from UniProt P35579 1330-1960) (domain or fragment)
Kd [2]: 3620 nM

hNM2B rod (1337–1976), purified (from UniProt P35580 1337-1976) (domain or fragment)
Kd [2]: 346 nM

B1: GST-cNM2A (1711–1960) (domain or fragment, canis (dog), UniProt Q258K2 1711-1960, looked up)
chain: ANSSGKGALALEEKRRLEARIAQLEEELEEEQGNTELVNDRLKKANLQIDQINTDLNLERSHAQKNENARQQLERQNKELKVKLQEMEGTVKSKYKASITALEAKIAQLEEQLDNETKERQAACKQVRRAEKKLKDVLLQVDDERRNAEQFKDQADKASTRLKQLKRQLEEAEEEAQRANASRRKLQRELEDATETADAMNREVSSLKNKLRRGDLPFVVPRRVARKGAGDCSDEEVDGKADGAEAKAAE
notes: canis nonmuscle myosin-2A heavy chain, rod and tail fragment 1711-1960; also called last 250 residues of NM2A; not shown: GST, N-terminal, kept
binding result [3]: binds

B2: GST-cNM2A (1461–1960) (domain or fragment, canis (dog), UniProt Q258K2 1461-1960, looked up)
chain: AEERDRAEAEAREKETKALSLARALEEAMEQKAELERLNKQFRTEMEDLMSSKDDVGKSVHELEKSKRALEQQVEEMKTQLEELEDELQATEDAKLRLEVNLQAMKAQFERDLQGRDEQSEEKKKQLVRQVREMEAELEDEKKQRSMAVAARKKLEMDLKDLEAHIDSANKNRDEAIKQLRKLQAQMKDCVRELDDTRASREEILAQAKENEKKMKSMEAEMIQLQEELAAAERAKRQAQQERDELADEIANSSGKGALALEEKRRLEARIAQLEEELEEEQGNTELVNDRLKKANLQIDQINTDLNLERSHAQKNENARQQLERQNKELKVKLQEMEGTVKSKYKASITALEAKIAQLEEQLDNETKERQAACKQVRRAEKKLKDVLLQVDDERRNAEQFKDQADKASTRLKQLKRQLEEAEEEAQRANASRRKLQRELEDATETADAMNREVSSLKNKLRRGDLPFVVPRRVARKGAGDCSDEEVDGKADGAEAKAAE
notes: canis nonmuscle myosin-2A heavy chain, rod fragment 1461-1960; also called NM2A rod bait, last ≈500 residues; not shown: GST, N-terminal, kept
binding result [3]: binds

B3: GST-mCGNL1 (1–122) (domain or fragment)
chain: MELYFGEYQHVQQEYGVHLRLASGDTPKPRNSQPSKAGSYGVSIRVQGIDGHPYIVLNNTERCLAGTPFPENAPSFPSSVINNLSLHPSNGTVLKENTPEELQLPENPYLQTSPLRGQKQFS
Kd ([1]; both partners purified): 79.8 nM

B4: ZO1 (protein)
chain: EDEDEDGHTVVATARGIFNSNGGVLSSIETGVSIIIPQGAIPEGIEQEIYFKVCRDNSILPPLDKEKGETLLSPLVMCGPHGLKFLKPVELRLPHCDPKTWQNKCLPGDPNYLVGANCVSVLIDHF
Kd (CGNL1): 79.8 nM
Kd (CGN): 7.7 nM
